Source: article PMC5740674 (Proceedings of the National Academy of Sciences of the …, 2017)
Substitutions are numbered along the chain they refer to. Names and notes keep the numbering of the source. Square brackets hold non-standard residues; d marks the D form. Ends that are not written are not given here. pT = C[C@@H](OP(=O)(O)O)[C@H](N)C(=O)O

T1: Mis12, full length (subunit of the Mis12–Nnf1 complex) (S. pombe, UniProt Q9Y738 1-259)
T1 sequence (looked up): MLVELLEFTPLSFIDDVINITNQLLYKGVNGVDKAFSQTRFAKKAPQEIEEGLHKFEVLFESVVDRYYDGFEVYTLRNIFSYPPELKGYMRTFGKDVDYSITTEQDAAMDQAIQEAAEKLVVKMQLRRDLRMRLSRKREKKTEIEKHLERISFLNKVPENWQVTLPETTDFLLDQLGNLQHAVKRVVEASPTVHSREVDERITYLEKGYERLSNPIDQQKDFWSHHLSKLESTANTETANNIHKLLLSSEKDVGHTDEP

T2: GST-Cnp3(fl), full-length Cnp3 (S. pombe, UniProt Q9USR9 1-643)
T2 sequence (looked up): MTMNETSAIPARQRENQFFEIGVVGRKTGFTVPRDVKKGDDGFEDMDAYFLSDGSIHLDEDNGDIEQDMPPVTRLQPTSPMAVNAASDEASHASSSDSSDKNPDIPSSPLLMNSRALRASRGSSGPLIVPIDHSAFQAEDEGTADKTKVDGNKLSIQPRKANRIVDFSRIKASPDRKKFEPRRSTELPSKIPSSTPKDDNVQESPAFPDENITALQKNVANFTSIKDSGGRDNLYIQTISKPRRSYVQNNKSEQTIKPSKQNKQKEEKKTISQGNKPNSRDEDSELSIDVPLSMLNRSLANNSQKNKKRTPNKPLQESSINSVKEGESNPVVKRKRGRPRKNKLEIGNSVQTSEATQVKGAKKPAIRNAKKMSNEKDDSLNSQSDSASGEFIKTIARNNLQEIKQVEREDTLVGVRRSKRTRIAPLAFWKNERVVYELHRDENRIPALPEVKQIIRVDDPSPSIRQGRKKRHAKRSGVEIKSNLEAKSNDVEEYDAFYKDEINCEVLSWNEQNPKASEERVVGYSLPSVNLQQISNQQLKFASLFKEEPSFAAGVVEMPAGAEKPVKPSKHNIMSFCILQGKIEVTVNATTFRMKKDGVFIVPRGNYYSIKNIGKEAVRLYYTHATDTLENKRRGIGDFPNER

T3: Dsn1^DD–Nsl1 subcomplex (Dsn1 S68D S77D) (S. pombe, UniProt Q9UUB5 1-329; Q9P6M3 1-210, S68D | S77D)
T3 sequence (looked up) 1: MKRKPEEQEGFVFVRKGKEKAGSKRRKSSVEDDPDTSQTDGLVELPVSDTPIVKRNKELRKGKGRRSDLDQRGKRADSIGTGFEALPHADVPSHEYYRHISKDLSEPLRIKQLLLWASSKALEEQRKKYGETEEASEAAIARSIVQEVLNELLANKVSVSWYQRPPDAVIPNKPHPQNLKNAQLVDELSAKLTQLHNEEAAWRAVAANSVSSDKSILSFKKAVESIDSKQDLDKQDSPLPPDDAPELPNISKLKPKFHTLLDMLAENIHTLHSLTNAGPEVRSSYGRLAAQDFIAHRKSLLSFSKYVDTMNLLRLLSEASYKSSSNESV
T3 sequence (looked up) 2: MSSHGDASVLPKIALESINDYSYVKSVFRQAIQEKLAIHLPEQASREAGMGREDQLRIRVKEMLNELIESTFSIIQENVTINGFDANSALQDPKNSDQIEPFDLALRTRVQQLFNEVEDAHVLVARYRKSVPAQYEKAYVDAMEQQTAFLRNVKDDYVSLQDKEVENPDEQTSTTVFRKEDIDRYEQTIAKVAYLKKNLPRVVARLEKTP

B1: Nnf1, full length, untagged (subunit of the Mis12–Nnf1 complex) (natural protein, S. pombe, UniProt Q09858 1-205, looked up)
chain: MTSRKEQLDAFLSRTLSETIAHIPLEKFAQCFPSMKKGKVIAVIHQQLIEFFEKSCKQEYANLIKERDLNKKLDMLDECIHDAEFRKLHGESEVDISNKQPQEILKAHLYSHKRELLDKLNQDLLDIDKENEGLSTQIAGEEKATEDCISRMQSLIQKLEKTVYGMNEKNLAKEAHDTLNDLLPYIQNPSSTWTNALNEQGNIER
B2: GST-Cnp3(1–60)^WT (domain or fragment, S. pombe, UniProt Q9USR9 1-60, looked up)
chain: MTMNETSAIPARQRENQFFEIGVVGRKTGFTVPRDVKKGDDGFEDMDAYFLSDGSIHLDE
B3: GST-Cnp3(1–155) (domain or fragment, S. pombe, UniProt Q9USR9 1-155, looked up)
chain: MTMNETSAIPARQRENQFFEIGVVGRKTGFTVPRDVKKGDDGFEDMDAYFLSDGSIHLDEDNGDIEQDMPPVTRLQPTSPMAVNAASDEASHASSSDSSDKNPDIPSSPLLMNSRALRASRGSSGPLIVPIDHSAFQAEDEGTADKTKVDGNKLS
B4: GST-Cnp3(1–155)^T28A (domain or fragment, S. pombe, UniProt Q9USR9 1-155, looked up)
chain: B3 chain with T28A
B5: GST-Cnp3(26–50) (domain or fragment, S. pombe, UniProt Q9USR9 26-50, looked up)
chain: RKTGFTVPRDVKKGDDGFEDMDAYF
B6: Mis12–Nnf1 complex with Mis12 R66A (complex, S. pombe)
chain 1: T1 sequence (looked up) with R66A
chain 2: B1 chain
B7: Mis12–Nnf1 complex with Mis12 Y67A (complex, S. pombe)
chain 1: T1 sequence (looked up) with Y67A
chain 2: B1 chain
B8: Cnp3(26–52)^pT28 peptide (peptide, UniProt Q9USR9 26-52, looked up)
peptide: RK[pT]GFTVPRDVKKGDDGFEDMDAYFLS
B9: Dsn1–Nsl1 subcomplex (complex, S. pombe)
chain 1: T3 sequence (looked up) 1 with D68S, D77S
chain 2: T3 sequence (looked up) 2
B10: Mis12–Nnf1 complex (full-length Mis12 and full-length Nnf1) (complex, S. pombe)
chain 1: T1 sequence (looked up)
chain 2: B1 chain
B11: Cnp3(26–52) peptide (peptide, UniProt Q9USR9 26-52, looked up)
peptide: RKTGFTVPRDVKKGDDGFEDMDAYFLS

Experiments:
[1] = biological target: T1, Mis12, full length (subunit of the …); assay: SEC-MALS
[2] = biological target: B10; assay: pull-down
[3] = biological target: T2, GST-Cnp3(fl), full-length Cnp3; assay: pull-down
[4] = biological target: B10; assay: ITC
[5] = biological target: B10; assay: SEC-MALS
[6] = biological target: T3, Dsn1^DD–Nsl1 subcomplex (Dsn1 S68D S77D); assay: SEC-MALS

## B1
[1]
  stoichiometry N: 1

## B2
[2]
  binding result: binds

## B3
[2]
  binding result: binds

## B4
[2]
  binding result: binds

## B5
[2]
  binding result: binds

## B6
[3]
  binding result: binds

## B7
[3]
  binding result: binds

## B8
[4]
  Kd: 92 µM

## B9
[5]
  stoichiometry N: 1

## B10
[6]
  binding result: binds
[3]
  binding result: binds

## B11
[4]
  Kd: 12.6 µM
